Assay results: article PMC3806657 (Molecular Biology of the Cell, 2013)

T1: 6His-tagged GEF domain of Gef2 (aa 211-600) (S. pombe, UniProt Q09733 211-600)
T1 sequence: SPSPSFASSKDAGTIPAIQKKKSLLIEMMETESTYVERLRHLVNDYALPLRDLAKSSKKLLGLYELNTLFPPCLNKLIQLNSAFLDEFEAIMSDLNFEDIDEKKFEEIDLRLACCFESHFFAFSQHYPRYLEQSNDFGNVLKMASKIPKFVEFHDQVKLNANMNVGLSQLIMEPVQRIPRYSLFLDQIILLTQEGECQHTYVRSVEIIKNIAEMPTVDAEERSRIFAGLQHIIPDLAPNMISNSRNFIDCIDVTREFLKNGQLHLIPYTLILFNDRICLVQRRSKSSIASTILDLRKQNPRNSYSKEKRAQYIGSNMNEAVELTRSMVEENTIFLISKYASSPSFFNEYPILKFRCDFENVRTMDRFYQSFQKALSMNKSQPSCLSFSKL

B1: GST-Rho4 (enzyme)
chain: MSAFKKSGSKSETSKKLVVVGDGGCGKTCLLIVFSSGTFPERYVPTVFENYITDITYGPNSKVIELALWDTAGQEEYDRLRPLSYPNSNVILLCFSIDCPASLNNVTEKWYPEVQHFCPRTPIVLVGLKADLRKDRNATEVLRTQGLTPVTYQQAQSVALSMNAPYVECSAKENTGVNEVFQLAVGLTIKKSFSFSKKSCVIL
B2: GST-Rho5 (enzyme)
chain: MTTELRRKLVIVGDGACGKTCLLIVFSKGTFPEVYVPTVFENYVADVEVDGRHIELALWDTAGQEDYDRLRPLSYPDSHVVLICFSVDAPESLDNVQEKWISEVLHFCSNLPILLVGCKVDLRNDPKTIEELSKTSQKPITFEEGQVVAQKIGAYKYLECSAKLNEGVNEVFETAARASMLKFKPASVPKTKKKKHCILL
B3: GST-Rho1 (enzyme)
chain: MATELRRKLVIVGDGACGKTCLLIVFSKGTFPEVYVPTVFENYVADVEVDGRHVELALWDTAGQEDYDRLRPLSYPDSHVILICFAVDSPDSLDNVQEKWISEVLHFCSSLPILLVACKADLRNDPKIIEELSKTNQHPVTTEEGQAVAQKIGAYKYLECSAKTNEGVREVFESATRAAMLKHKPKVKPSSGTKKKKRCILL

Biological target: T1, 6His-tagged GEF domain of Gef2 (aa …)
Assay: pull-down

Binder	binding result
B1	binds
B2	binds
B3	binds
